Source: patent US7588931B2, “High arachidonic acid producing strains of Yarrowia lipolytica” (E. I. du Pont de Nemours and Company, priority 2004, dated 2009)

Tested on: Yarrowia lipolytica
Assay: Percent substrate conversion of desaturases and elongases expressed in Yarrowia lipolytica
Assay type: cell-based
Conditions: for Codon-Opt. Gene % Sub. Conv. / Native Gene % Sub. Conv.: percent substrate conversion; for Codon-Opt. Gene % Sub. Conv.: codon-optimized gene expressed in Y. lipolytica; for Native Gene % Sub. Conv.: expressed in Y. lipolytica; for percent (%) substrate conversion of the codon-optimized gene: transformants of strain Y2031, MM, 2 days
Method: The terms “conversion efficiency” and “percent substrate conversion” refer to the efficiency by which a particular enzyme (e.g., a desaturase or elongase) can convert substrate to product. The conversion efficiency is measured according to the following formula: ([product]/[substrate+product])*100, where ‘product’ includes the immediate product and all products in the pathway derived from it.
With respect to Δ12 desaturase, Applicants have made the surprising discovery that the Fusarium moniliforme Δ12 desaturase (encoded by SEQ ID NO:27) functions with greater efficiency than the native Yarrowia lipolytica Δ12 desaturase in producing 18:2 in Y. lipolytica (see WO 2005/047485). Specifically, expression of the F. moniliforme Δ12 desaturase under the control of the TEF promoter in Y. lipolytica was determined to produce higher levels of 18:2 (68% product accumulation of LA) than were previously attainable by expression of a chimeric gene encoding the Y. lipolytica Δ12 desaturase under the control of the TEF promoter (59% product accumulation of LA). This corresponds to a difference in percent substrate conversion (calculated as ([18:2+18:3]/[18:1+18:2+18:3])*100) of 85% versus 74%, respectively.
In the present invention, several desaturase and elongase genes from Table 5 were codon-optimized for expression in Yarrowia lipolytica, based on the host preferences described above. This was possible by first determining the Y. lipolytica codon usage profile (see WO 04/101757) and identifying those codons that were preferred. Then, for further optimization of gene expression in Y. lipolytica, the consensus sequence around the ‘ATG’ initiation codon was determined (i.e., ‘MAMMATGNHS’ (SEQ ID NO:356), wherein the nucleic acid degeneracy code used is as follows: M=A/C; S═C/G; H=A/C/T; and N=A/C/G/T). Table 7, below, compares the activity of native and codon-optimized genes when expressed in Y. lipolytica and provides details about each codon-optimized gene. % Sub. Conv. is the abbeviation for “percent substrate conversion” and Codon-Opt. is an abbreviation for “codon-optimized”.
Construct pDMW237 (FIG. 8C), an auto-replication plasmid comprising a chimeric FBAIN::1 g D9e::Pex20 gene, was transformed into Y. lipolytica Y2031 strain (Example 4) as described in the General Methods. Three transformants of Y2031 with pDMW237 were grown individually in MM media for two days and the cells were collected by centrifugation, lipids were extracted, and fatty acid methyl esters were prepared by trans-esterification, and subsequently analyzed with a Hewlett-Packard 6890 GC.
Construct pDMW297 was then used for transformation of strain Y2031 (Example 5) according to the General Methods. The transformant cells were plated onto MM selection media plates and maintained at 30° C. for 2 to 3 days. A total of 8 transformants grown on the MM plates were picked and re-streaked onto fresh MM plates. Once grown, these strains were individually inoculated into liquid MM at 30° C. and shaken at 250 rpm/min for 2 days. The cells were collected by centrifugation, lipids were extracted, and fatty acid methyl esters were prepared by trans-esterification, and subsequently analyzed with a Hewlett-Packard 6890 GC.

[1] = under the control of the TEF promoter in Y. lipolytica

Row | Molecule | Codon-Opt. Gene % Sub. Conv. [%] | Native Gene % Sub. Conv. [%] | other results
1 | M. alpina Δ6 desaturase: GenBank AF465281; codon-optimized gene SEQ ID NO:3 (protein, listed as Mortierella alpina, misc_feature: synthetic delta-6 desaturase (codon-optimized)) MAAAPSVRTFTRAEVLNAEALNEGKKDAEAPFLMIIDNKVYDVREFVPDHPGGSVILTHVGKDGTDVFDTFHPEAAWETLANFYVGDIDESDRDIKNDDFAAEVRKLRTLFQSLGYYDSSKAYYAFKVSFNLCIWGLSTVIVAKWGQTSTLANVLSAALLGLFWQQCGWLAHDFLHHQVFQDRFWGDLFGAFLGGVCQGFSSSWWKDKHNTHHAAPNVHGEDPDIDTHPLLTWSEHALEMFSDVPDEELTRMWSRFMVLNQTWFYFPILSFARLSWCLQSILFVLPNGQAHKPSGARVPISLVEQLSLAMHWTWYLATMFLFIKDPVNMLVYFLVSQAVCGNLLAIVFSLNHNGMPVISKEEAVDMDFFTKQIITGRDVHPGLFANWFTGGLNYQIEHHLFPSMPRHNFSKIQPAVETLCKKYNVRYHTTGMIEGTAEVFSRLNEVSKATSKMGKAQ | 42 | 30 | –
2 | S. diclina Δ17 desaturase: US 2003/0196217 A1; codon-optimized gene SEQ ID NO:16 (protein, listed as Saprolegnia diclina, misc_feature: synthetic delta-17 desaturase (codon-optimized)) MAEDKTKVEFPTLTELKHSIPNACFESNLGLSLYYTARAIFNASASAALLYAARSTPFIADNVLLHALVCATYIYVQGVIFWGFFTVGHDCGHSAFSRYHSVNFIIGCIMHSAILTPFESWRVTHRHHHKNTGNIDKDEIFYPHRSVKDLQDVRQWVYTLGGAWFVYLKVGYAPRTMSHFDPWDPLLLRRASAVIVSLGVWAAFFAAYAYLTYSLGFAVMGLYYYAPLFVFASFLVITTFLHHNDEATPWYGDSEWTYVKGNLSSVDRSYGAFVDNLSHHIGTHQVHHLFPIIPHYKLNEATKHFAAAYPHLVRRNDEPIITAFFKTAHLFVNYGAVPETAQIFTLKESAAAAKAKSD | 45 | 23 | –
3 | Y. lipolytica Δ12 desaturase: native Yarrowia lipolytica Δ12 desaturase, SEQ ID NOs:23 and 24 (protein, listed as Yarrowia lipolytica) MDSTTQTNTGTGKVAVQPPTAFIKPIEKVSEPVYDTFGNEFTPPDYSIKDILDAIPQECYKRSYVKSYSYVARDCFFIAVFAYMAYAYLPLIPSASGRAVAWAMYSIVQGLFGTGLWVLAHECGHSAFSDSNTVNNVTGWVLHSSMLVPYYAWKLTHSMHHKSTGHLTRDMVFVPKDRKEFMENRGAHDWSELAEDAPLMTLYGLITQQVFGWPLYLLSYVTGQKYPKLNKWAVNHFNPNAPLFEKKDWFNIWISNVGIGITMSVIAYSINRWGLASVTLYYLIPYLWVNHWLVAITYLQHTDPTLPHYHADQWNFTRGAAATIDREFGFIGSFCFHDIIETHVLHHYVSRIPFYNARIATEKIKKVMGKHYRHDDTNFIKSLYTVARTCQFVEGKEGIQMFRNVNGVGVAPDGLPSKK | – | – | percent substrate conversion (calculated as ([18:2+18:3]/[18:1+18:2+18:3])*100) [1]: 74%; product accumulation of LA [1]: 59%
4 | Isochrysis galbana Δ5 desaturase: codon-optimized gene SEQ ID NO:10 (protein, listed as Isochrysis galbana, misc_feature: synthetic delta-5 desaturase (codon-optimized)) MVAGKSGAAAHVTHSSTLPREYHGATNDSRSEAADVTVSSIDAEKEMIINGRVYDVSSFVKRHPGGSVIKFQLGADASDAYNNFHVRSKKADKMLYSLPSRPAEAGYAQDDISRDFEKLRLELKEEGYFEPNLVHVSYRCVEVLAMYWAGVQLIWSGYWFLGAIVAGIAQGRCGWLQHEGGHYSLTGNIKIDRHLQMAIYGLGCGMSGCYWRNQHNKHHATPQKLGTDPDLQTMPLVAFHKIVGAKARGKGKAWLAWQAPLFFGGIICSLVSFGWQFVLHPNHALRVHNHLELAYMGLRYVLWHLAFGHLGLLSSLRLYAFYVAVGGTYIFTNFAVSHTHKDVVPPTKHISWALYSANHTTNCSDSPFVNWWMAYLNFQIEHHLFPSMPQYNHPKIAPRVRALFEKHGVEYDVRPYLECFRVTYVNLLAVGNPEHSYHEHTH | 32 | 7 | –
5 | M. alpina high affinity C18/20 elongase: GenBank AX464731; codon-optimized gene SEQ ID NO:19 (protein, listed as Mortierella alpina, misc_feature: synthetic elongase 1 (codon-optimized)) MESIAPFLPSKMPQDLFMDLASAIGVRAAPYVDPLEAALVAQAEKYIPTIVHHTRGFLVAVESPLARELPLMNPFHVLLIVLAYLVTVFVGMQIMKNFERFEVKTFSLLHNFCLVSISAYMCGGILYEAYQANYGLFENAADHTFKGLPMAKMIWLFYFSKIMEFVDTMIMVLKKNNRQISFLHVYHHSSIFTIWWLVTFVAPNGEAYFSAALNSFIHVIMYGYYFLSALGFKQVSFIKFYITRSQMTQFCMMSVQSSWDMYAMKVLGRPGYPFFITALLWFYMWTMLGLFYNFYRKNAKLAKQAKADAAKEKARKLQ | 47 | 30 | –
6 | D8SF: completely corrected synthetic codon-optimized Δ8 desaturase gene, SEQ ID NO:48 (protein, D8SF: synthetic delta-8 desaturase (codon-optimized for Yarrowia lipolytica)) MVKSKRQALPLTIDGTTYDVSAWVNFHPGGAEIIENYQGRDATDAFMVMHSQEAFDKLKRMPKINPSSELPPQAAVNEAQEDFRKLREELIATGMFDASPLWYSYKISTTLGLGVLGYFLMVQYQMYFIGAVLLGMHYQQMGWLSHDICHHQTFKNRNWNNLVGLVFGNGLQGFSVTWWKDRHNAHHSATNVQGHDPDIDNLPLLAWSEDDVTRASPISRKLIQFQQYYFLVICILLRFIWCFQSVLTVRSLKDRDNQFYRSQYKKEAIGLALHWTLKTLFHLFFMPSILTSLLVFFVSELVGGFGIAIVVFMNHYPLEKIGDSVWDGHGFSVGQIHETMNIRRGIITDWFFGGLNYQIEHHLWPTLPRHNLTAVSYQVEQLCQKHNLPYRNPLPHEGLVILLRYLAVFARMAEKQPAGKAL | – | – | percent (%) substrate conversion of the codon-optimized gene: 75%
7 | T. aureum C18/20 elongase: codon-optimized gene SEQ ID NO:22 (protein, listed as Thraustochytrium aureum, misc_feature: synthetic elongase (codon-optimized)) MANSSVWDDVVGRVETGVDQWMDGAKPYALTDGLPMMDVSTMLAFEVGYMAMLLFGIPIMKQMEKPFELKTIKLLHNLFLFGLSLYMCVETIRQAILGGYKVFGNDMEKGNESHAQGMSRIVYVFYVSKAYEFLDTAIMILCKKFNQVSFLHVYHHATIFAIWWAIAKYAPGGDAYFSVILNSFVHTVMYAYYFFSSQGFGFVKPIKPYITTLQMTQFMAMLVQSLYDYLFPCDYPQALVQLLGVYMITLLALFGNFFVQSYLKKPKKSKTN | 46 | 33 | –
8 | IgD9e: synthetic codon-optimized Δ9 elongase gene, SEQ ID NO:41 (protein, IgD9e: synthetic delta-9 elongase (codon-optimized for Yarrowia lipolytica)) MALANDAGERIWAAVTDPEILIGTFSYLLLKPLLRNSGLVDEKKGAYRTSMIWYNVLLALFSALSFYVTATALGWDYGTGAWLRRQTGDTPQPLFQCPSPVWDSKLFTWTAKAFYYSKYVEYLDTAWLVLKGKRVSFLQAFHHFGAPWDVYLGIRLHNEGVWIFMFFNSFIHTIMYTYYGLTAAGYKFKAKPLITAMQICQFVGGFLLVWDYINVPCFNSDKGKLFSWAFNYAYVGSVFLLFCHFFYQDNLATKKSAKAGKQL | – | – | percent (%) substrate conversion of the codon-optimized gene: about 13%
9 | Isochrysis galbana Δ9 elongase: codon-optimized gene SEQ ID NO:41 (protein, IgD9e: synthetic delta-9 elongase (codon-optimized for Yarrowia lipolytica)) MALANDAGERIWAAVTDPEILIGTFSYLLLKPLLRNSGLVDEKKGAYRTSMIWYNVLLALFSALSFYVTATALGWDYGTGAWLRRQTGDTPQPLFQCPSPVWDSKLFTWTAKAFYYSKYVEYLDTAWLVLKGKRVSFLQAFHHFGAPWDVYLGIRLHNEGVWIFMFFNSFIHTIMYTYYGLTAAGYKFKAKPLITAMQICQFVGGFLLVWDYINVPCFNSDKGKLFSWAFNYAYVGSVFLLFCHFFYQDNLATKKSAKAGKQL | 30 | – | –
